# According to IntAct's records for PubMed 17215868:
# B1: Vacuolar protein-sorting-associated protein 36 (Saccharomyces cerevisiae), Q06696 (parent)
# chain: MEYWHYVETTSSGQPLLREGEKDIFIDQSVGLYHGKSKILQRQRGRIFLTSQRIIYIDDAKPTQNSLGLELDDLAYVNYSSGFLTRSPRLILFFKDPSSKDELGKSAETASADVVSTWVCPICMVSNETQGEFTKDTLPTPICINCGVPADYELTKSSINCSNAIDPNANPQNQFGVNSENICPACTFANHPQIGNCEICGHRLPNASKVRSKLNRLNFHDSRVHIELEKNSLARNKSSHSALSSSSSTGSSTEFVQLSFRKSDGVLFSQATERALENILTEKNKHIFNQNVVSVNGVDMRKGASSHEYNNEVPFIETKLSRIGISSLEKSRENQLLNNDILFNNALTDLNKLMSLATSIERLYKNSNITMKTKTLNLQDESTVNEPKTRRPLLILDREKFLNKELFLDEIAREIYEFTLSEFKDLNSDTNYMIITLVDLYAMYNKSMRIGTGLISPMEMREACERFEHLGLNELKLVKVNKRILCVTSEKFDVVKEKLVDLIGDNPGSDLLRLTQILSSNNSKSNWTLGILMEVLQNCVDEGDLLIDKQLSGIYYYKNSYWPSHI
# partner: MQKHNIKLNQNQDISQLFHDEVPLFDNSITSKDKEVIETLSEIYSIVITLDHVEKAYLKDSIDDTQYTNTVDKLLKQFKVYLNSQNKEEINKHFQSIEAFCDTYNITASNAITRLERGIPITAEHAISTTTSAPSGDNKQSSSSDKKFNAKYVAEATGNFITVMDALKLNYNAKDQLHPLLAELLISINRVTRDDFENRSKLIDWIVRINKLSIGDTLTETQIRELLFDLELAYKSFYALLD
# Variants of: B1
# Settings: with vps28_yeast VPS28, Q02767
row,Variant,effect of a mutation on the interaction
1,I122D,disrupting interaction

# Variants of: B1
# Settings: with vps28_yeast VPS28, Q02767
# Remark: another data set of the same source
row,Variant,effect of a mutation on the interaction
1,I122D;V148D,disrupting interaction

# Variants of: B1
# Settings: with vps28_yeast VPS28, Q02767
# Remark: another data set of the same source
row,Variant,effect of a mutation on the interaction
1,V148D;D151R,disrupting interaction

# Variants of: B1
# Settings: with vps28_yeast VPS28, Q02767
# Remark: another data set of the same source
row,Variant,effect of a mutation on the interaction
1,D151R;L154R,disrupting interaction
